Test results reported in publication PMC11061198, “Polyphosphate and tyrosine phosphorylation in the N-terminal domain of the human mitochondrial Lon protease disrupts its functions” (Scientific Reports, 2024).

Molecular target: the molecule itself
Assay: cryo-EM structure; ADP-bound hLon variants, 1.3 mg/ml, single-particle cryo-EM (cryoSPARC); homo-hexamer

B1: human Lon protease Y394E phosphorylation-mimicking mutant (enzyme, UniProt P36776 68-959, looked up)
chain: FWEASSRGGGAFSGGEDASEGGAEEGAGGAGGSAGAGEGPVITALTPMTIPDVFPHLPLIAITRNPVFPRFIKIIEVKNKKLVELLRRKVRLAQPYVGVFLKRDDSNESDVVESLDEIYHTGTFAQIHEMQDLGDKLRMIVMGHRRVHISRQLEVEPEEPEAENKHKPRRKSKRGKKEAEDELSARHPAELAMEPTPELPAEVLMVEVENVVHEDFQVTEEVKALTAEIVKTIRDIIALNPLYRESVLQMMQAGQRVVDNPIYLSDMGAALTGAESHELQDVLEETNIPKRLYKALSLLKKEFELSKLQQRLGREVEEKIKQTHRKELLQEQLKIIKKELGLEKDDKDAIEEKFRERLKELVVPKHVMDVVDEELSKLGLLDNHSSEFNVTRNYLDWLTSIPWGKYSNENLDLARAQAVLEEDHYGMEDVKKRILEFIAVSQLRGSTQGKILCFYGPPGVGKTSIARSIARALNREYFRFSVGGMTDVAEIKGHRRTYVGAMPGKIIQCLKKTKTENPLILIDEVDKIGRGYQGDPSSALLELLDPEQNANFLDHYLDVPVDLSKVLFICTANVTDTIPEPLRDRMEMINVSGYVAQEKLAIAERYLVPQARALCGLDESKAKLSSDVLTLLIKQYCRESGVRNLQKQVEKVLRKSAYKIVSGEAESVEVTPENLQDFVGKPVFTVERMYDVTPPGVVMGLAWTAMGGSTLFVETSLRRPQDKDAKGDKDGSLEVTGQLGEVMKESARIAYTFARAFLMQHAPANDYLVTSHIHLHVPEGATPKDGPSAGCTIVTALLSLAMGRPVRQNLAMTGEVSLTGKILPVGGIKEKTIAAKRAGVTCIVLPAENKKDFYDLAAFITEGLEVHFVEHYREIFDIAFPDEQAEALAVER
notes: human mitochondrial Lon protease (LONP1) lacking the N-terminal MTS, with Y394E; also called hLon Y394E; source: E. coli Rosetta 2 (DE3) or E. coli C321 (DE3), purified (NiNTA agarose, Superose 6 SEC)
B1 was tested, and the “stoichiometry N” value was 6.
